Test results: patent publication US10400224B2, “Enantioselective modified esterase enzyme and method for the production thereof” (CORPORACIÓN CORPOGEN, priority 2014, dated 2019)

How the values were obtained:
[1] = Kinetic resolution of racemic phenyl ester of ibuprofen (chiral HPLC); format: biochemical
Experimental: An evaluation was performed analytical scale to deter mine the kinetic resolution of phenyl ester substrates of ibuprofen and naproxen (Chow et al., 2012). The evaluation of the kinetic resolution for phenyl ester substrates of ibuprofen was developed in the following manner:
i) A solution with 17.32 Ml of buffer phosphate (100 mM, pH 8.0) was mixed with 2 ml. of DMSO and 0.66 mil of the stock solution of the substrate (10 mM in DMSO). To this solution it was added 100 μl of the enzyme to evaluate. The reaction was made with continuous agitation at a temperature from 45° C. and 75° C. for 80 minutes.
ii) The reaction was stopped by the addition of a concentrated solution of HCl (pH 1.0). Immediately thereafter, it was extracted the ibuprofen with methyl tertiary butyl ether (MTBE) twice with 20 ml of the solution.
iii) The ibuprofen was derivatized as a methyl ester after having added a solution of diazomethane 0.5 M in ethanol. The solvent was removed by means of reduction of pressure.
iv) The enantiomeric excess of the phenyl ester Ibuprofen and of the methyl ester ibuprofen was determined by means of chiral liquid high efficiency chromatography (HPLC—High performance liquid chromatography) (Dionex) using a Chiralpak IA column, under the following conditions: • A mobile phase n-heptane:isopropanol with a ratio of 99.8:0.2 • A flow of 0.5 mL.min^1 • Reading at 210 nm.
v) The retention time for the enantiomer (S) methyl ester ibuprofen was of 10:23 minutes, while that for the enantiomer (R) methyl ester ibuprofen was of 11:17 minutes. The retention time for the enantiomers (S) and (R) phenyl ester ibuprofen were of 16.32 and 18.07 respectively.

[2] = Kinetic resolution of pNP ester of naproxen (1H-NMR, chiral HPLC); format: biochemical
Experimental: (§1) The enantioselectivity was evaluated by means of the kinetic resolution of the substrates phenyl ester naproxen and pNP ester naproxen. The procedure was the following (Chow et al., 2012):
(§2) i) 69.29 mL of a buffer phosphate solution (100 mM, pH 8.0) was mixed with 8 mL of DMSO-d6 and 2.64 mL of the stock solution of the substrate (10 mM in DMSO-d6). To this solution, it was added 200 μl of the enzyme to evaluate. The reaction was performed under continuous agitation at a temperature between 45° C. and 75° C. for 40 minutes.
(§3) ii) The reaction was stopped by adding a concentrated solution of HCl (pH 1.0). Immediately, the naproxen was extracted with MTBE twice with 20 ml of the solution.
(§4) iii) The extracted mixture of naproxen was dried under reduced pressure conditions. The transformation of this substrate was determined by means of MRI spectrographs (1H-NMR, Hydrogen-1 nuclear magnetic resonance) in which were compared the signals generated by the methyl groups from the naproxen and its corresponding esters.
(§5) iv) After measuring the samples containing the naproxen and the phenyl ester of naproxen, these samples were mixed with MTBE, 20 mL and extracted again with 20 mL, from an aqueous solution of NaHCO3.
(§6) v) The aqueous phase was acidified with HCl and it was extracted with MTBE, 20 ml. The extracted naproxen was derivatized to methyl ester through the addition of a solution of diazomethane 0.5 M in ethanol. The solvent was removed by a reduced pressure.
(§7) vi) The enantiomeric excess of the methyl ester ibuprofen was determined by means of chiral liquid high efficiency chromatography (HPLC—High performance liquid chromatography) (Dionex) using a Chiralcel ODH, under the following conditions • A mobile phase n-heptane: isopropanol with a ratio of 99:1 • A flow of 0.5 mL.min^1 • Reading at 225 nm.
(§8) vii) The retention time for the (S) and (R) enantiomers of methyl ester naproxen were of 22.84 and 19.39 minutes, respectively.
viii) The samples evaluated by NMR, underwent an additional test for determining the ee, by means of chiral HPLC with a CD detector (Jasco) using a Hyperclone ODS C18 column, under the following conditions: • A mobile phase of acetonitrile:water in a ratio of 80:20. • Flow of 0.5 mL.min^−1 • Reading of 220 nm
ix) The retention time for the p-NP ester of naproxen was of 3.83 minutes. The CD signal was measured at 280 nm.

[3] = Storage of the purified modified protein in Tris-HCl buffer; format: physicochemical; details: Tris-HCL buffer at 9.0 pH, 4° C.
Experimental: Thereafter, the product of the elution was concentrated in Amicon columns of 30 kDa. This concentration process was strictly necessary in order to be able to rule out the elution solution in which it was the protein and permit to leave it in a Tris-HCL buffer at a 9.0 pH, which permits stability to the modified protein. […] The purity of the protein was evaluated in a SDS-PAGE gel at 12% (p/v).

[4] = Optimum temperature and pH of the modified enzyme (p-nitrophenyl ester assay); format: biochemical
Experimental: The activity of the modified enzyme was determined spectrophotometrically at 405 nm in a range of temperatures between 45 and 75° C., using p-nitro phenyl of other chains C6 to C10 (Sigma-Aldrich) as substrate. One unit of esterase activity was defined as the capacity of the enzyme to release 1 μmol min^−1 of p-nitrophenol under the essay conditions. The molar absorbance coefficient was of 16.900 M^−1 cm^−1. The mixture consisted of 448 μl of the Tris-HCl 50 mM buffer at 9.0 pH that contained 50 μl of p-nitrophenyl diluted in isopropanol and 2 μl of the solution stock of the protein. All the assays were made by triplicate and the average was calculated.
The optimum temperature of the modified enzyme was evaluated between 30 and 90° C. in buffer Tris HCl 50 mM (pH 9.0) exposing the enzyme to 30 minutes in each evaluated temperature (Suzuki et al., 2004, Park et al., 2006). […]
It was evaluated the activity of the enzyme by means of the p-nitrophenyl ester with some modifications, since for evaluating different pH values were used different buffer solutions, depending of the pH to evaluate: buffer acetate 50 mM (pH 5.0-6.0) buffer succinate (pH 4.0-5.5), MES (pH5.5-7.0). […] The protein was incubated for 15 minutes at a temperature higher than 45° C. and lower than 75° C. and then the quantification was made.

[5] = Kinetic resolution of phenyl ester of naproxen (1H-NMR, chiral HPLC); format: biochemical
Experimental: as §1, §2, §3, §4, §5, §6, §7, §8

[6] = calculated by method of Kroutil et al, 1997

B1: 499EST: esterase enzyme of SEQ No. 2 from strain USBA-GBX-499 with a C-terminal tail of 5-10 histidine residues (protein, listed as Acidicaldus sp.)
chain: MPLDRHAEAVLEMIRQSGRPPYETLTPAEARGLYRQAREVLAPEPPPVAEVRDLSLPHPAGPALPTRLYRPQQGGAPLPLLVYFHGGGWVIGDLETHDVVCREIANRAGIGVLSIDYRLAPEHKFPAAVEDAFAATRWAAKEAPSLGFDPARLAVGGDSAGGNLAAVVSLLAREQGGPSIAFQLLIYPATDLGMTHPSHQRWAEGYLLTRPTMEWFRAHYLTDPTREIADWRVSPLRAPDLRGLPPAFVLTAEYDPLVDEGEDYAARLAAAGVPVATHRVPGMIHGFLTMGKAIPAANEALGLIAERLRAALA
modifications: C-terminal histidine tail; amino acid sequence of 499EST
With B1 the conversion c [1, 6] was 56%, the “enantioselectivity E” value [1, 6] was 4 and the “ee of the substrate (phenyl ester of ibuprofen)” value ([1]; chiral HPLC) was 50%. The “ee of the product” value ([1]; chiral HPLC, product derivatized as methyl ester) was 40%, the conversion ([2]; 1H-RMN) was 49% and the “ee of naproxen product” value ([2]; HPLC) was 31%. The “enantioselectivity lower for the pNP ester than for the phenyl ester” value ([2]; naproxen esters) was 5 times, the “enantioselectivity E” value ([2]; pNP ester of naproxen) was 2 and the storage time [3] was “several months”. The “pH of optimum activity” value [4] was 9.0, the “temperature of optimum activity” value [4] was 55 °C and the conversion ([5]; 1H-RMN) was 52%. For the same molecule, the “ee of naproxen product” value ([5]; HPLC) was 65% and the “enantioselectivity E” value ([5]; phenyl ester of naproxen) was 10.
